Experimental data from IntAct's records for PubMed 31515488.

B1: Zinc finger protein Aiolos (Homo sapiens), Q9UKT9 (parent)
chain: MEDIQTNAELKSTQEQSVPAESAAVLNDYSLTKSHEMENVDSGEGPANEDEDIGDDSMKVKDEYSERDENVLKSEPMGNAEEPEIPYSYSREYNEYENIKLERHVVSFDSSRPTSGKMNCDVCGLSCISFNVLMVHKRSHTGERPFQCNQCGASFTQKGNLLRHIKLHTGEKPFKCHLCNYACQRRDALTGHLRTHSVEKPYKCEFCGRSYKQRSSLEEHKERCRTFLQSTDPGDTASAEARHIKAEMGSERALVLDRLASNVAKRKSSMPQKFIGEKRHCFDVNYNSSYMYEKESELIQTRMMDQAINNAISYLGAEALRPLVQTPPAPTSEMVPVISSMYPIALTRAEMSNGAPQELEKKSIHLPEKSVPSERGLSPNNSGHDSTDTDSNHEERQNHIYQQNHMVLSRARNGMPLLKEVPRSYELLKPPPICPRDSVKVINKEGEVMDVYRCDHCRVLFLDYVMFTIHMGCHGFRDPFECNMCGYRSHDRYEFSSHIARGEHRALLK
partner: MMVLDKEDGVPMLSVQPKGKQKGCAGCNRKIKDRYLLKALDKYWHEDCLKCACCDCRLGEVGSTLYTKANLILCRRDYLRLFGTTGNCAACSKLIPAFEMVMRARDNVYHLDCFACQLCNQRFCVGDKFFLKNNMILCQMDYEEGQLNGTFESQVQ
B2: Microtubule-associated tumor suppressor candidate 2 (Homo sapiens), Q5JR59-3 (parent)
chain: MGHCCCKPYNCLQCLDKTNESALVKEKELSIELANIRDEVAFHTAKCEKLQKEKEELERRFEDEVKRLGWQQQAELQELEERLQLQFEAEMARLQEEHGDQLLSIRCQHQEQVEDLTASHDAALLEMENNHTVAITILQDDHDHKVQELMSTHELEKKELEENFEKLRLSLQDQVDTLTFQSQSLRDRARRFEEALRKNTEEQLEIALAPYQHLEEDMKSLKQVLEMKNQQIHEQEKKILELEKLAEKNIILEEKIQVLQQQNEDLKARIDQNTVVTRQLSEENANLQEYVEKETQEKKRLSRTNEELLWKLQTGDPTSPIKLSPTSPVYRGSSSGPSSPARVSTTPR
partner: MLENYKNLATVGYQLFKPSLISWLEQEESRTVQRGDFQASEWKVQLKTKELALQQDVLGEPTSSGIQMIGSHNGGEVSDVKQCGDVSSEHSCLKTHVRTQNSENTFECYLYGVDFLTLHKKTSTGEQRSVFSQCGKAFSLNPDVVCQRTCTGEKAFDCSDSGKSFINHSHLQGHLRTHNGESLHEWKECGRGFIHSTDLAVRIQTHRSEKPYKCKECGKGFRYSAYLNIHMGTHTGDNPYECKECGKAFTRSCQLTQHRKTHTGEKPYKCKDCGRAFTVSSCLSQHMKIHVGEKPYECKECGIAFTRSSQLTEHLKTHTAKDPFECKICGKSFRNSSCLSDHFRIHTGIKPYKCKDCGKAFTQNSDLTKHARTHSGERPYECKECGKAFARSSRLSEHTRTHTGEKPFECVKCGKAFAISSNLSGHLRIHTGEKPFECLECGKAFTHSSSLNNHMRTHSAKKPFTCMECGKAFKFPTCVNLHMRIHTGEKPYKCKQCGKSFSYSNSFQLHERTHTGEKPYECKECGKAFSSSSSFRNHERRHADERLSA
B3: Four and a half LIM domains protein 2 (Homo sapiens), Q14192 (parent)
chain: MTERFDCHHCNESLFGKKYILREESPYCVVCFETLFANTCEECGKPIGCDCKDLSYKDRHWHEACFHCSQCRNSLVDKPFAAKEDQLLCTDCYSNEYSSKCQECKKTIMPGTRKMEYKGSSWHETCFICHRCQQPIGTKSFIPKDNQNFCVPCYEKQHAMQCVQCKKPITTGGVTYREQPWHKECFVCTACRKQLSGQRFTARDDFAYCLNCFCDLYAKKCAGCTNPISGLGGTKYISFEERQWHNDCFNCKKCSLSLVGRGFLTERDDILCPDCGKDI
partner: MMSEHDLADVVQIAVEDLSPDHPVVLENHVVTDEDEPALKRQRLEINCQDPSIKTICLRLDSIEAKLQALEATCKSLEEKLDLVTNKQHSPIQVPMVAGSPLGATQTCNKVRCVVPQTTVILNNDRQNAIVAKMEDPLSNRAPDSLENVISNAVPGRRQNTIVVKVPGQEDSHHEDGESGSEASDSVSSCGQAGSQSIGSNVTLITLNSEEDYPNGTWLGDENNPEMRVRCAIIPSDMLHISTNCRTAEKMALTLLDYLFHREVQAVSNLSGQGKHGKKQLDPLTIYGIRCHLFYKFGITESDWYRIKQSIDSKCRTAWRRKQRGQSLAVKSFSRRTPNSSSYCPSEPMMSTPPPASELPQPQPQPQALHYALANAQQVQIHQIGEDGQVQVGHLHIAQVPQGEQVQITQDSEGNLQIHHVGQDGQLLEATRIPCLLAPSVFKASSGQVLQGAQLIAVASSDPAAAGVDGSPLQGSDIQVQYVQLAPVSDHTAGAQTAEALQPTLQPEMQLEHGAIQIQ
B4: Prolyl 4-hydroxylase subunit alpha-3 (Homo sapiens), Q7Z4N8 (parent)
chain: MGPGARLAALLAVLALGTGDPERAAARGDTFSALTSVARALAPERRLLGLLRRYLRGEEARLRDLTRFYDKVLSLHEDSTTPVANPLLAFTLIKRLQSDWRNVVHSLEASENIRALKDGYEKVEQDLPAFEDLEGAARALMRLQDVYMLNVKGLARGVFQRVTGSAITDLYSPKRLFSLTGDDCFQVGKVAYDMGDYYHAIPWLEEAVSLFRGSYGEWKTEDEASLEDALDHLAFAYFRAGNVSCALSLSREFLLYSPDNKRMARNVLKYERLLAESPNHVVAEAVIQRPNIPHLQTRDTYEGLCQTLGSQPTLYQIPSLYCSYETNSNAYLLLQPIRKEVIHLEPYIALYHDFVSDSEAQKIRELAEPWLQRSVVASGEKQLQVEYRISKSAWLKDTVDPKLVTLNHRIAALTGLDVRPPYAEYLQVVNYGIGGHYEPHFDHATSPSSPLYRMKSGNRVATFMIYLSSVEAGGATAFIYANLSVPVVRNAALFWWNLHRSGEGDSDTLHAGCPVLVGDKWVANKWIHEYGQEFRRPCSSSPED
B5: Fibronectin type III and SPRY domain-containing protein 2 (Homo sapiens), A1L4K1 (parent)
chain: MEEESGEELGLDRSTPKDFHFYHMDLYDSEDRLHLFPEENTRMRKVVQAEMANESRGAGDGKAQRDLQEEVDELVHLYGLEDDHELGDEFVDENIPRTGVSEYPPYMMKRRDPAREQRDWRLSGEAAEAEDLGFGGWGSAGQCQDLREAYRYTHGRASEEYECYVIPEEEDEEEAADVFCVTCKTPIRAFQKVFDEHKEHEVIPLNEALESAKDEIHKNMYKLEKQIIEMENFANHLEEVFITVEENFGKQEQNFESHYNEILETLAQKYEEKIQALGEKKKEKLEALYGQLVSCGENLDTCKELMETIEEMCHEEKVDFIKDAVAMADRLGKFLKTKTDVEISAQPEFEDQTLDFSDVEQLMGSINTIPAPSAPVINPQVPNSATGSSVRVCWSLYSDDTVESYQLSYRPVQDSSPGTDQAEFTVTVKETYCSVTNLVPNTQYEFWVTAHNRAGPSPSSERAVYMTAPSPPIIKTKEIRSCEEAVLICWESGNLNPVDSYTVELTQAESPEASGVTESVVGIPTCESVVQLQPGRSYIIYVRALNMGGPSVRSEPATVHTIGSYFRLNKDTCHPWLTISEDGLTAVRSERRTPARELSPSDTHFTRCVAVMGNLIPVRGHHYWEVEVDEHLDYRVGVAFADVRKQEDLGANCLSWCMRHTFASSRHKYEFLHNRTTPDIRITVPPKKIGILLDYEHSKLSFFNVDLSQHLYTFSCQLHEFVHPCFSLEKPGCLKVHNGISMPKHVTFY
partner: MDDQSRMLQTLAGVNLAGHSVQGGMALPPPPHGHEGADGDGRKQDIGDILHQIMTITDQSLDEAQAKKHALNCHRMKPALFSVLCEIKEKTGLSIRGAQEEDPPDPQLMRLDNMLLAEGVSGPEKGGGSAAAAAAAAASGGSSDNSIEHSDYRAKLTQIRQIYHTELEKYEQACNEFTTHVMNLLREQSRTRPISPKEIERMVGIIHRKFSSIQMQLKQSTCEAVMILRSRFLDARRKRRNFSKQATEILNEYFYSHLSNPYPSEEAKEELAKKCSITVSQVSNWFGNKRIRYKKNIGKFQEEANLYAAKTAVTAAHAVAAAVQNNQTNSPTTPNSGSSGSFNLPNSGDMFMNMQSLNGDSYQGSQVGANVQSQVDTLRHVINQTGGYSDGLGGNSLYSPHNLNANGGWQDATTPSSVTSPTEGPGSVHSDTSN

Variants of: B1
Conditions: with rbtn1_human LMO1, P25800

| effect of a mutation on the interaction | Variant |
| --- | --- |
| with no effect | N119D |

Variants of: B2
Conditions: with zn266_human ZNF266, Q14584

| effect of a mutation on the interaction | Variant |
| --- | --- |
| with no effect | A89V |

Variants of: B3
Conditions: with banp_human BANP

| effect of a mutation on the interaction | Variant |
| --- | --- |
| with no effect | R177Q |

Variants of: B4
Conditions: with maga2_human MAGEA2, P43356
Chain of maga2_human MAGEA2, P43356 (P43356 whole entry): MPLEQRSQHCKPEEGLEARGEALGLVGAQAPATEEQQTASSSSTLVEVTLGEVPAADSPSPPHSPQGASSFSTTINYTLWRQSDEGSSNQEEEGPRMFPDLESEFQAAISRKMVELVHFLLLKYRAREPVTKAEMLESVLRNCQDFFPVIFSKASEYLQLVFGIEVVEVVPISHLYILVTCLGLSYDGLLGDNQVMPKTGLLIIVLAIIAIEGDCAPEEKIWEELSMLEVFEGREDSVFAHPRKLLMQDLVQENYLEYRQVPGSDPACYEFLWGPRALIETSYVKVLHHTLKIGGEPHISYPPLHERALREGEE

| effect of a mutation on the interaction | Variant |
| --- | --- |
| disrupting interaction strength | S378L |

Variants of: B4
Conditions: with nutm1_human NUTM1, Q86Y26
Chain of nutm1_human NUTM1, Q86Y26 (Q86Y26 whole entry): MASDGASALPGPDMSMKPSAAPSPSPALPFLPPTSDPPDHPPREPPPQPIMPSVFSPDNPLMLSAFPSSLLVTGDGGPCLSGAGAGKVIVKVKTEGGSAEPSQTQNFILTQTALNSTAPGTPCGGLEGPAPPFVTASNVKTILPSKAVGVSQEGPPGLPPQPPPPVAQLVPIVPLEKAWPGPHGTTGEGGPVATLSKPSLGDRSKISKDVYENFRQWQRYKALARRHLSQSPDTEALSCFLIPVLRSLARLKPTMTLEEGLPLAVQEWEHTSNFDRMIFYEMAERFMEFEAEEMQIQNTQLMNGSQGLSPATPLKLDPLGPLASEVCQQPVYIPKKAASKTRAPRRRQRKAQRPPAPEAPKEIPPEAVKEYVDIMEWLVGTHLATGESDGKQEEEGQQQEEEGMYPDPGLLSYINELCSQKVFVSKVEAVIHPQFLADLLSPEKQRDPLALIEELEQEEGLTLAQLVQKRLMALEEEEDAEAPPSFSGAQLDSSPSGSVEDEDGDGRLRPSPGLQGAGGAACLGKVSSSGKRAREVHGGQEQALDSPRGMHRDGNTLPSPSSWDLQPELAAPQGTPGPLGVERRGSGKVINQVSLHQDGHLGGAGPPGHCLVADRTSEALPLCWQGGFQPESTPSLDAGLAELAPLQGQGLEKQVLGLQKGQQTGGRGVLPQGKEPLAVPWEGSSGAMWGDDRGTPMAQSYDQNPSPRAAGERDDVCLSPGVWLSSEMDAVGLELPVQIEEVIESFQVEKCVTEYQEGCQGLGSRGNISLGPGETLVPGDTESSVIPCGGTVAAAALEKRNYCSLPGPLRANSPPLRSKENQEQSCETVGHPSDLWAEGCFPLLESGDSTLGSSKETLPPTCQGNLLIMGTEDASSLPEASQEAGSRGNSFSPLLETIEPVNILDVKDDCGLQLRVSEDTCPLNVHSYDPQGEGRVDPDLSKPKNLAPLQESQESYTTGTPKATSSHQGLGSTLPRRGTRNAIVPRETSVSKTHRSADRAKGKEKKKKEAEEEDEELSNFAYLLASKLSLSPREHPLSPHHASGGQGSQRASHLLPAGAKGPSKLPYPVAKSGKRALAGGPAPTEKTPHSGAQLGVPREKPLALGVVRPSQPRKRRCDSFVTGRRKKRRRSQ

| effect of a mutation on the interaction | Variant |
| --- | --- |
| disrupting interaction strength | S378L |

Variants of: B5
Conditions: with pbx3_human PBX3, P40426

| effect of a mutation on the interaction | Variant |
| --- | --- |
| with no effect | K333T |
